The subject of the series is Escherichia coli TOP10. The series is described as follows: shrunken log2 fold change of peptide-encoding DNA abundance (4.5 h post-induction vs induction); higher = less antimicrobial activity (less host growth inhibition). The settings on record: time post-induction: 4.5 h; library: site-saturation at positions 5, 18, 19, 20.
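Further: peptides expressed intracellularly from a pBAD plasmid library in pooled LB shake-flask culture, induced with 0.3% L-arabinose, DNA abundance read by NGS, three biological replicates, DESeq2 with apeglm shrinkage.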

In the case of RRIRTRPPRLPRPRPRPRAQPRP, the “shrunken log2 fold change” value turned out to be 0.461.

Turning to RRIRHRPPRLPRPRPRPQNPPRP, the “shrunken log2 fold change” value is -0.0256.

As to RRIRDRPPRLPRPRPRPWKRPRP, the “shrunken log2 fold change” value is -0.0239.

In the case of RRIRVRPPRLPRPRPRPFYVPRP, the “shrunken log2 fold change” value amounted to 1.07.

On to RRIRYRPPRLPRPRPRPEREPRP, for which the “shrunken log2 fold change” value is -0.0221.

Consider RRIRMRPPRLPRPRPRPPVKPRP, for which the “shrunken log2 fold change” value was determined as 0.512.

As to RRIRCRPPRLPRPRPRPDVEPRP, the “shrunken log2 fold change” value was -0.421.

With RRIRFRPPRLPRPRPRPLILPRP, the “shrunken log2 fold change” value is -0.739.

On to RRIRARPPRLPRPRPRPGCLPRP, for which the “shrunken log2 fold change” value is 0.419.

For the sequence RRIRWRPPRLPRPRPRPAIIPRP, the “shrunken log2 fold change” value was -0.296.

Consider RRIRERPPRLPRPRPRPRFKPRP, for which the “shrunken log2 fold change” value came to 0.00602.

For RRIRKRPPRLPRPRPRPVFTPRP, the “shrunken log2 fold change” value was -0.0937.

Turning to RRIRQRPPRLPRPRPRPHRFPRP, the “shrunken log2 fold change” value is -0.275.

As for RRIRRRPPRLPRPRPRPQLFPRP, the “shrunken log2 fold change” value was found to be 2.21.

With RRIRGRPPRLPRPRPRPLEWPRP, the “shrunken log2 fold change” value came out at 1.03.

For RRIRQRPPRLPRPRPRPTMIPRP, the “shrunken log2 fold change” value came to 0.151.

Regarding RRIRTRPPRLPRPRPRPWVTPRP, the “shrunken log2 fold change” value is -0.117.

Turning to RRIRGRPPRLPRPRPRPCTCPRP, the “shrunken log2 fold change” value worked out at 0.111.

Turning to RRIRYRPPRLPRPRPRPDRTPRP, the “shrunken log2 fold change” value is -0.0309.

Regarding RRIRTRPPRLPRPRPRPVVTPRP, the “shrunken log2 fold change” value amounted to 0.0483.

For the sequence RRIRLRPPRLPRPRPRPEGYPRP, the “shrunken log2 fold change” value worked out at 0.104.

With RRIRFRPPRLPRPRPRPVYHPRP, the “shrunken log2 fold change” value is -1.19.

In the case of RRIRPRPPRLPRPRPRPSFVPRP, the “shrunken log2 fold change” value is -0.436.

Take RRIRRRPPRLPRPRPRPGNEPRP: the “shrunken log2 fold change” value was -0.301.

In the case of RRIRMRPPRLPRPRPRPKMMPRP, the “shrunken log2 fold change” value amounted to 0.351.

Take RRIRQRPPRLPRPRPRPGLSPRP: the “shrunken log2 fold change” value was 0.0405.

As to RRIRCRPPRLPRPRPRPFQFPRP, the “shrunken log2 fold change” value was found to be 0.133.

With RRIRFRPPRLPRPRPRPTLPPRP, the “shrunken log2 fold change” value is 0.23.

As for RRIRLRPPRLPRPRPRPIQMPRP, the “shrunken log2 fold change” value is -0.0252.

On to RRIRSRPPRLPRPRPRPCGFPRP, for which the “shrunken log2 fold change” value is -0.0141.

Take RRIRQRPPRLPRPRPRPNMVPRP: the “shrunken log2 fold change” value was -0.0131.

Regarding RRIRSRPPRLPRPRPRPGSFPRP, the “shrunken log2 fold change” value is 0.209.

For the sequence RRIRGRPPRLPRPRPRPQWNPRP, the “shrunken log2 fold change” value is 0.0405.

Regarding RRIRSRPPRLPRPRPRPILCPRP, the “shrunken log2 fold change” value is -0.35.

Take RRIRPRPPRLPRPRPRPRDLPRP: the “shrunken log2 fold change” value amounted to 0.172.

Consider RRIRTRPPRLPRPRPRPEEQPRP, for which the “shrunken log2 fold change” value is 0.0262.

For the sequence RRIRDRPPRLPRPRPRPLMNPRP, the “shrunken log2 fold change” value is 0.0268.

Regarding RRIRPRPPRLPRPRPRPHKAPRP, the “shrunken log2 fold change” value is 0.0705.

Take RRIRARPPRLPRPRPRPPPCPRP: the “shrunken log2 fold change” value is 0.979.

Take RRIRTRPPRLPRPRPRPNFTPRP: the “shrunken log2 fold change” value is -0.0395.

RRIRYRPPRLPRPRPRPHEMPRP: the “shrunken log2 fold change” value is 2.66.

For RRIRWRPPRLPRPRPRPQEIPRP, the “shrunken log2 fold change” value was -0.0137.

On to RRIRWRPPRLPRPRPRPLRAPRP, for which the “shrunken log2 fold change” value is 1.19.

Consider RRIRVRPPRLPRPRPRPDRAPRP, for which the “shrunken log2 fold change” value is -0.0118.

Take RRIRFRPPRLPRPRPRPMFFPRP: the “shrunken log2 fold change” value was -0.549.

For the sequence RRIRRRPPRLPRPRPRPDPYPRP, the “shrunken log2 fold change” value worked out at 0.175.

Consider RRIRRRPPRLPRPRPRPWHQPRP, for which the “shrunken log2 fold change” value is -0.111.

As for RRIRIRPPRLPRPRPRPHNKPRP, the “shrunken log2 fold change” value is -0.976.

With RRIRDRPPRLPRPRPRPVTKPRP, the “shrunken log2 fold change” value was -0.173.

Take RRIRLRPPRLPRPRPRPMCMPRP: the “shrunken log2 fold change” value was -0.451.

The record behind these values is the supplement of paper PMC9112550, “Optimization of the antimicrobial peptide Bac7 by deep mutational scanning” (BMC Biology, 2022).
